Article PMC4479991

Columns and labels:
[1] = molecular target: zif268 (EGR1 DNA-binding domain), cleaved (UniProt P08046); assay: solid-state nanopore; settings: EMSA: binding on ice, at least 1 h, native PAGE 8% (oligos) or 3.5% (1 kb), salt up to 1 M KCl; nanopore: 1 M KCl, 30 min incubation at 200:1 protein:DNA; pH …
[2] = molecular target: zif268_GST (uncleaved fusion) (UniProt P08046); assay: EMSA; settings: EMSA: binding on ice, at least 1 h, native PAGE 8% (oligos) or 3.5% (1 kb), salt up to 1 M KCl; nanopore: 1 M KCl, 30 min incubation at 200:1 protein:DNA; pH …

Substance | binding signal (% ABA (specifically bound) events) [1] | binding signal (% bound at 1:250 DNA:protein) [2]
(-)DNA 960 bp | 4.3 | 
CGTCAGGGCAAGCCTTATTCACTGAATGAGCAGCTTTGTTACGTTGATTTGGGTAATGAATATCCGGTTCTTGTCAAGATTACTCTTGATGAAGGTCAGCCAGCCTATGCGCCTGGTCTGTACACCGTTCATCTGTCCTCTTTCAAAGTTGGTCAGTTCGGTTCCCTTATGATTGACCGTCTGCGCCTCGTTCCGGCTAAGTAACATGGAGCAGGTCGCGGATTTCGACACAATTTATCAGGCGATGATACAAATCTCCGTTGTACTTTGTTTCGCGCTTGGTATAATCGCTGGGGGTCAAAGATGAGTGTTTTAGTGTATTCTTTCGCCTCTTTCGTTTTAGGTTGGTGCCTTCGTAGTGGCATTACGTATTTTACCCGTTTAATGGAAACTTCCTCATGAAAAAGTCTTTAGTCCTCAAAGCCTCTGTAGCCGTTGCTACCCTCGTTCCGATGCTGTCTTTCGCTGCTGAGGGTGACGATCCCGCAAAAGCGGCCTTTAACTCCCTGCAAGCCTCAGCGACCGAATATATCGGTTATGCGTGGGCGATGGTTGTTGTCATTGTCGGCGCAACTATCGGTATCAAGCTGTTTAAGAAATTCACCTCGAAAGCAAGCTGATAAACCGATACAATTAAAGGCTCCTTTTGGAGCCTTTTTTTTTGGAGATTTTCAACGTGAAAAAATTATTATTCGCAATTCCTTTAGTTGTTCCTTTCTATTCTCACTCCGCTGAAACTGTTGAAAGTTGTTTAGCAAAACCCCATACAGAAAATTCATTTACTAACGTCTGGAAAGACGACAAAACTTTAGATCGTTACGCTAACTATGAGGGTTGTCTGTGGAATGCTACAGGCGTTGTAGTTTGTACTGGTGACGAAACTCAGTGTTACGGTACATGGGTTCCTATTGGGCTTGCTATCCCTGAAAATGAGGGTGGTGGCTCTGAGGGTGGCGGTTCTGAGGGTGGCGGTTCTGAGGGTGGCGGTACTAAACCTCCTGAGTACGGT (double strand) [(+)DNA 1009 bp] | 11.5 | 50
